Experiment in all cases: G assay ELISA, E6 PL peptide titrated on constant GST-PDZ
The target of experiment [1] is GST-SAST2 PDZ domain 1 (human).
Experiment [2] deals with GST-PSD95 PDZ domains 1-3 (human), P78352.
Experiment [3] deals with GST-TIP1 PDZ domain (human).
The target of experiment [4] is GST-SAST1 PDZ domain (human), Q9Y2H9.
For experiment [5], the target named is GST-DLG3 PDZ domains 1-2 (human), Q92796.
Experiment [6] concerns the target GST-PSD95 PDZ domain 2 (human).
The target of experiment [7] is GST-MAGI1 PDZ domain 2 (human).
For experiment [8], the target named is GST-SIP1 PDZ domain 1 (human).

Ends that are not written are not given here.

Sequence of GST-DLG3 PDZ domains 1-2 (human), Q92796 (Q92796 other isoform, or with tags, fused parts or gaps limits assumed): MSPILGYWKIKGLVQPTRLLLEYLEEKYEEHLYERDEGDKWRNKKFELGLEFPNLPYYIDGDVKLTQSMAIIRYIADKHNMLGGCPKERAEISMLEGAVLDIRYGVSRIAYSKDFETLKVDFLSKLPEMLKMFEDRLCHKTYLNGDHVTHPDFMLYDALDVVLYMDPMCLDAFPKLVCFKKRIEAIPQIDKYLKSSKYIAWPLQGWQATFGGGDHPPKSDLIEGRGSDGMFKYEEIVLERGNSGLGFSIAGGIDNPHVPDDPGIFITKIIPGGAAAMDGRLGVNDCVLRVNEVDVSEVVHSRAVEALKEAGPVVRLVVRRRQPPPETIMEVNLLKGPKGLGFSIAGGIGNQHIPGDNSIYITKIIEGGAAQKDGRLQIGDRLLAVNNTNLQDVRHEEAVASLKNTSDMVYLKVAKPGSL
Sequence of GST-SAST1 PDZ domain (human), Q9Y2H9 (Q9Y2H9 other isoform, or with tags, fused parts or gaps limits assumed): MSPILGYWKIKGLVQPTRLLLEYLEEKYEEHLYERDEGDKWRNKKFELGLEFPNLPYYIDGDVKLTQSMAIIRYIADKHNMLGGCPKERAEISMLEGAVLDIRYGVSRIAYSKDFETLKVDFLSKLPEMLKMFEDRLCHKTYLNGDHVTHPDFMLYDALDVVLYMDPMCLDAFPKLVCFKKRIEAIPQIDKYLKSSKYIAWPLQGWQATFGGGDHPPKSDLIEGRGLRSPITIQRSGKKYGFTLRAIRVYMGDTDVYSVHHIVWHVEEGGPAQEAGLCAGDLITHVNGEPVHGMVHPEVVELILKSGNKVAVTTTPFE

On to WTGRCMSCCRSSRTRRETQL (not fully specified; cysteine pairing not given here) [HPV16 E6 C-terminal PDZ ligand peptide (20 mer, biotinylated), P03126 139-158], for which the concentration for a half-maximal effect (EC50) was 1200 nM in experiment [1]; 1000 nM in experiment [2]; 750 nM in experiment [3]; 580 nM in experiment [4]; 3.8 µM in experiment [5]; 6.8 µM in experiment [6]. In addition, the figures for the EC50 in experiment [7] and in experiment [8] were 56 nM and 7.5 µM, respectively.

The values above are taken from patent US20040229298A1.
